Experimental data from US20140239237A1 (BOARD OF TRUSTEES OF MICHIGAN STATE UNIVERSITY, published 2014).

What was measured:
[1] = target: the molecule itself; test: in vitro self-assembly into fibers, seen by TEM and AFM
[2] = target: the molecule itself; test: in vitro self-assembly, TEM

Protein	binding result [1]	binding result [2]
AIPQFSAYRVKAYNSAASSDLRNLKTALESAFADDQTYPPES (42 residues, released from the CBD-intein fusion with DTT; also called PilA19 subunit; PilA19 monomer) [PilA19 peptide (19 amino acid N-terminal truncation of G. sulfurreducens PilA)]	binds	
CIPQFSAYRVKAYNSAASSDLRNLKTALESAFADDQTYPPES (42 residues; The N-terminal alanine of PilA19, position 20 of full-length mature PilA, is replaced by cysteine; also called cysteine-modified subunit; PilA19-A20C monomer) [PilA19-A20C cysteine-modified recombinant pilin]		binds
